Data as given in patent US20240192215A1 (E AND S HEALTHCARE, published 2024).
Blank lines part the entries; values can stand above or below the binder they belong to.

How the values were obtained:
Peptide_019 [1] = biological target: T1, Peptide_019 (human); test: peptide microarray, 1 ug/mL
T1 construct: 15-mer of hTrx1 on microarray
T1 peptide: VKQIESKTAFQEALD
Protocol: (§1) 5, 1, 0.2, 0.04, 0.008 and 0.0016 μg/mL serial dilutions were incubated on a single multi-well microarray slide at 30° C. for 1 hour. The slide includes 21 individual mini-arrays (one mini-array per sample dilution).
(§2) DyLight 650 was used as a label. False-positive binding to a peptide was evaluated by performing one additional control incubation in which only a secondary antibody was applied on the same microarray slide. Before performing each step, the microarrays were washed with a washing buffer.

Peptide_018 [2] = biological target: T2, Peptide_018 (human); test: peptide microarray, 1 ug/mL
T2 construct: 15-mer on microarray; not native form, includes recombinant insert region; also called HVKQIESKTAFQEAL
T2 peptide: HVKQIESKTAFQEAL
Protocol: as §1, §2

Peptide_022 [3] = biological target: T3, Peptide_022 (human); test: peptide microarray, 1 ug/mL
T3 construct: 15-mer of hTrx1 on microarray
T3 peptide: IESKTAFQEALDAAG
Protocol: as §1, §2

Peptide_086 [4] = biological target: T4, Peptide_086 (human); test: peptide microarray, 1 ug/mL
T4 construct: 15-mer of hTrx1 on microarray
T4 peptide: CEVKCMPTFQFFKKG
Protocol: as §1, §2

Peptide_085 [5] = biological target: T5, Peptide_085 (human); test: peptide microarray, 0.2 ug/mL
T5 construct: 15-mer of hTrx1 on microarray
T5 peptide: ECEVKCMPTFQFFKK

Peptide_019 [6] = biological target: T1, Peptide_019; test: peptide microarray, 0.2 ug/mL
Peptide_024 [7] = biological target: T6, Peptide_024 (human); test: peptide microarray, 0.2 ug/mL
T6 construct: 15-mer of hTrx1 on microarray
T6 peptide: SKTAFQEALDAAGDK

Peptide_095 [8] = biological target: T7, Peptide_095 (human); test: peptide microarray, 0.2 ug/mL
T7 construct: 15-mer of hTrx1 on microarray
T7 peptide: QFFKKGQKVGEFSGA

Peptide_020 [9] = biological target: T8, Peptide_020 (human); test: peptide microarray, 0.2 ug/mL
T8 construct: 15-mer of hTrx1 on microarray
T8 peptide: KQIESKTAFQEALDA

Peptide_012 [10] = biological target: T9, Peptide_012 (human); test: peptide microarray, 0.2 ug/mL
T9 construct: 15-mer on microarray; not native form, includes recombinant insert region
T9 peptide: HHHHHHHVKQIESKT

Peptide_093 [11] = biological target: T10, Peptide_093 (human); test: peptide microarray, 0.2 ug/mL
T10 construct: 15-mer of hTrx1 on microarray
T10 peptide: TFQFFKKGQKVGEFS

Peptide_021 [12] = biological target: T11, Peptide_021 (human); test: peptide microarray, 0.2 ug/mL
T11 construct: 15-mer of hTrx1 on microarray
T11 peptide: QIESKTAFQEALDAA

Peptide_045 [13] = biological target: T12, Peptide_045 (human); test: peptide microarray, 0.2 ug/mL
T12 construct: 15-mer of hTrx1 on microarray
T12 peptide: SATWCGPCKMIKPFF

Peptide_022 [14] = biological target: T3, Peptide_022; test: peptide microarray, 0.2 ug/mL
Peptide_092 = biological target: T13, Peptide_092 (human); test: peptide microarray, head 0.08 ug (text 0.008 ug/mL)
T13 construct: 15-mer of hTrx1 on microarray
T13 peptide: PTFQFFKKGQKVGEF
Protocol: as §1, §2

Peptide_085 [15] = biological target: T5, Peptide_085; test: as above
Protocol: as §1, §2

Peptide_051 = biological target: T14, Peptide_051 (human); test: as above
T14 construct: 15-mer of hTrx1 on microarray
T14 peptide: PCKMIKPFFHSLSEK
Protocol: as §1, §2

Peptide_019 [16] = biological target: T1, Peptide_019; test: as above
Protocol: as §1, §2

Peptide_023 = biological target: T15, Peptide_023 (human); test: as above
T15 construct: 15-mer of hTrx1 on microarray
T15 peptide: ESKTAFQEALDAAGD
Protocol: as §1, §2

Peptide_024 [17] = biological target: T6, Peptide_024; test: as above
Protocol: as §1, §2

Peptide_094 = biological target: T16, Peptide_094 (human); test: as above
T16 construct: 15-mer of hTrx1 on microarray
T16 peptide: FQFFKKGQKVGEFSG
Protocol: as §1, §2

Peptide_095 [18] = biological target: T7, Peptide_095; test: as above
Protocol: as §1, §2

Peptide_020 [19] = biological target: T8, Peptide_020; test: as above
Protocol: as §1, §2

Peptide_014 = biological target: T17, Peptide_014 (human); test: as above
T17 construct: 15-mer on microarray; not native form, includes recombinant insert region
T17 peptide: HHHHHVKQIESKTAF
Protocol: as §1, §2

Peptide_012 [20] = biological target: T9, Peptide_012; test: as above
Protocol: as §1, §2

Peptide_018 [21] = biological target: T2, Peptide_018; test: as above
Protocol: as §1, §2

Peptide_013 = biological target: T18, Peptide_013 (human); test: as above
T18 construct: 15-mer on microarray; not native form, includes recombinant insert region
T18 peptide: HHHHHHVKQIESKTA
Protocol: as §1, §2

Peptide_093 [22] = biological target: T10, Peptide_093; test: as above
Protocol: as §1, §2

Peptide_021 [23] = biological target: T11, Peptide_021; test: as above
Protocol: as §1, §2

Peptide_045 [24] = biological target: T12, Peptide_045; test: as above
Protocol: as §1, §2

Peptide_022 [25] = biological target: T3, Peptide_022; test: as above
Protocol: as §1, §2

Peptide_015 = biological target: T19, Peptide_015 (human); test: as above
T19 construct: 15-mer on microarray; not native form, includes recombinant insert region
T19 peptide: HHHHVKQIESKTAFQ
Protocol: as §1, §2

Peptide_084 = biological target: T20, Peptide_084 (human); test: as above
T20 construct: 15-mer of hTrx1 on microarray
T20 peptide: SECEVKCMPTFQFFK
Protocol: as §1, §2

Peptide_025 = biological target: T21, Peptide_025 (human); test: as above
T21 construct: 15-mer of hTrx1 on microarray
T21 peptide: KTAFQEALDAAGDKL
Protocol: as §1, §2

Peptide_086 [26] = biological target: T4, Peptide_086; test: as above
Protocol: as §1, §2

Peptide_005 = biological target: T22, Peptide_005 (human); test: as above
T22 construct: 15-mer on microarray; not native form, recombinant insert region
T22 peptide: ADVHSQHHHHHHHHV
Protocol: as §1, §2

Peptide_004 = biological target: T23, Peptide_004 (human); test: as above
T23 construct: 15-mer on microarray; not native form, recombinant insert region
T23 peptide: AADVHSQHHHHHHHH
Protocol: as §1, §2

signal (blank-control = 1) (Peptide_019 [1]): 1.67 | signal (blank-control = 1) (Peptide_018 [2]): 5.52 | signal (blank-control = 1) (Peptide_022 [3]): 5.88 | signal (blank-control = 1) (Peptide_086 [4]): 1.56 | signal (blank-control = 1) (Peptide_085 [5]): 2.23 | signal (blank-control = 1) (Peptide_019 [6]): 1.48 | signal (blank-control = 1) (Peptide_024 [7]): 4 | signal (blank-control = 1) (Peptide_095 [8]): 2.13 | signal (blank-control = 1) (Peptide_020 [9]): 1.84 | signal (blank-control = 1) (Peptide_012 [10]): 1.72 | signal (blank-control = 1) (Peptide_093 [11]): 3.72 | signal (blank-control = 1) (Peptide_021 [12]): 2.08 | signal (blank-control = 1) (Peptide_045 [13]): 4.58 | signal (blank-control = 1) (Peptide_022 [14]): 4.2 | signal (blank-control = 1) (Peptide_092): 3.07 | signal (blank-control = 1) (Peptide_085 [15]): 0.9 | signal (blank-control = 1) (Peptide_051): 0.7 | signal (blank-control = 1) (Peptide_019 [16]): 1.02 | signal (blank-control = 1) (Peptide_023): 0.91 | signal (blank-control = 1) (Peptide_024 [17]): 1 | signal (blank-control = 1) (Peptide_094): 1 | signal (blank-control = 1) (Peptide_095 [18]): 1.15 | signal (blank-control = 1) (Peptide_020 [19]): 0.8 | signal (blank-control = 1) (Peptide_014): 1.14 | signal (blank-control = 1) (Peptide_012 [20]): 0.88 | signal (blank-control = 1) (Peptide_018 [21]): 0.85 | signal (blank-control = 1) (Peptide_013): 0.95 | signal (blank-control = 1) (Peptide_093 [22]): 1.53 | signal (blank-control = 1) (Peptide_021 [23]): 0.84 | signal (blank-control = 1) (Peptide_045 [24]): 5.89 | signal (blank-control = 1) (Peptide_022 [25]): 1 | signal (blank-control = 1) (Peptide_015): 0.79 | signal (blank-control = 1) (Peptide_084): 1.33 | signal (blank-control = 1) (Peptide_025): 1.03 | signal (blank-control = 1) (Peptide_086 [26]): 1.02
B1: monoclonal antibody B264 (antibody, mouse IgG1, kappa, V domains shown)
VH: QVQLQQSGAELARPGASVKMSCKASGYTFTSYTMHWVKQRPGQGLEWIGYINPTSDYTNYNQKFKDKATLTADKSSSTAYMQLSSLTSEDSAVYFCASEGGFLYYFDYWGQGTTLTVSS
VL: DVLMTQTPLSLPVSLGDQASISCRSSQSIVHSNGNTYLEWYLQKPGQSPKLLIYKVSNRFSGVPDRFSGSGSGTDFTLKISRVEAEDLGVYYCFQGSHVPYTFGGGTKLEIKR
notes: also called AB264; B264 (Trx1-mIgG1)

signal (blank-control = 1) (Peptide_005): 1.28 | signal (blank-control = 1) (Peptide_004): 1
B2: monoclonal antibody B266-1 (antibody, human IgG1)
light: QIVLTQSPAIMSASPGEKVTMTCSASSRISYMYWYQQKPGTSPKRWIYDTSKLASGVPARFSGSGSGTSYSLTISTMEAEDAATYYCHQRSSYPTFGAGTKLELKSVAAPSVFIFPPSDEQLKSGTASVVCLLNNFYPREAKVQWKVDNALQSGNSQESVTEQDSKDSTYSLSSTLTLSKADYEKHKVYACEVTHQGLSSPVTKSFNRGEC
heavy: not shown
notes: B266 with the Fc part changed to human IgG1; also called B266-1 (Trx1-hIgG1); B266-1 (hTrx1-hIgG1)
